What all share (assay): BLI
One assay has as its target T1, Rat EphB1-Fc protein (rat, UniProt P09759 18-538).
T1 sequence (looked up): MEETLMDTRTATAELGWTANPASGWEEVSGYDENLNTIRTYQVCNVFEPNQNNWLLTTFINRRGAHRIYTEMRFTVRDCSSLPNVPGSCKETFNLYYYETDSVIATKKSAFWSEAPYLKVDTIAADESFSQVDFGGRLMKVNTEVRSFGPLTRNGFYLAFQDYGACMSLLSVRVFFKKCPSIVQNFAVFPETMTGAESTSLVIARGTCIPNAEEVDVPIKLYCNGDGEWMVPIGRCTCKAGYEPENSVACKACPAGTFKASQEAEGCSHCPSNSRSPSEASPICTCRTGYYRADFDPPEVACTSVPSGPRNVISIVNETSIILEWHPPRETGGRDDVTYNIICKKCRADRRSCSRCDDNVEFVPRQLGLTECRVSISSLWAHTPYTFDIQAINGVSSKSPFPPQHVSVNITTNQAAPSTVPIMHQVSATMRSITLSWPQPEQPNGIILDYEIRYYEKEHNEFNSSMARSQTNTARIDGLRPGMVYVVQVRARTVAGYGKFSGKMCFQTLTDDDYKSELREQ

For another assay, the target named is T2, Human EphB3-Fc (human, UniProt P54753 38-550).
T2 sequence (looked up): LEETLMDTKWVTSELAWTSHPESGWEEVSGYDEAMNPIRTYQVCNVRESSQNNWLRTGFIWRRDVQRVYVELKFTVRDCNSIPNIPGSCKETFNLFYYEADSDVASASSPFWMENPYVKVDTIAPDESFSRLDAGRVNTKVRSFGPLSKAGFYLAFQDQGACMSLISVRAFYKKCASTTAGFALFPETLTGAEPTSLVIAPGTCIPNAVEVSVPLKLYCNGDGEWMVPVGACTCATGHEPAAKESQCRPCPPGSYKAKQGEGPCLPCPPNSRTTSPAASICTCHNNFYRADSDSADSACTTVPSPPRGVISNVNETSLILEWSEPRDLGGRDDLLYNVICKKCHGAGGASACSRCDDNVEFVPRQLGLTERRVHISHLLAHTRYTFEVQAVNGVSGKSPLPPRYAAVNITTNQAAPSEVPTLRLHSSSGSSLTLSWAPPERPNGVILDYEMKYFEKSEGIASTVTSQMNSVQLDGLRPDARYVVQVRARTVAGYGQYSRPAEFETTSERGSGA

A further assay concerns the target T3, Human EphB2-His (human, UniProt P29323 19-543).
T3 sequence (looked up): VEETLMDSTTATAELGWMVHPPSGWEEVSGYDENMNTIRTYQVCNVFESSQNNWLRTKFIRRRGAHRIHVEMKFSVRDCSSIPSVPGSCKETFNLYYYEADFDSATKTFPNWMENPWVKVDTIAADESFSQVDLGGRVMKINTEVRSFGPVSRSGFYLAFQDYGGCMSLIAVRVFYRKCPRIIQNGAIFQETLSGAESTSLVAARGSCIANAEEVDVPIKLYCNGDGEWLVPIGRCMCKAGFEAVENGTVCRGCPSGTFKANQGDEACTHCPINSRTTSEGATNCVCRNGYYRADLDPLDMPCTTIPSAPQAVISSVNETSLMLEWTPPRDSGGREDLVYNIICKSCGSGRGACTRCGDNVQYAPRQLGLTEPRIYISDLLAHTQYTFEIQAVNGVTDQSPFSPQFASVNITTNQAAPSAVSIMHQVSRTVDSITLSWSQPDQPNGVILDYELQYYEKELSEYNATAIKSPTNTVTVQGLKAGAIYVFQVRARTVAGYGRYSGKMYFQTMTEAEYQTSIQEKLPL

Another assay addresses T4, Human EphB1-His (human, UniProt P54762 18-540).
T4 sequence (looked up): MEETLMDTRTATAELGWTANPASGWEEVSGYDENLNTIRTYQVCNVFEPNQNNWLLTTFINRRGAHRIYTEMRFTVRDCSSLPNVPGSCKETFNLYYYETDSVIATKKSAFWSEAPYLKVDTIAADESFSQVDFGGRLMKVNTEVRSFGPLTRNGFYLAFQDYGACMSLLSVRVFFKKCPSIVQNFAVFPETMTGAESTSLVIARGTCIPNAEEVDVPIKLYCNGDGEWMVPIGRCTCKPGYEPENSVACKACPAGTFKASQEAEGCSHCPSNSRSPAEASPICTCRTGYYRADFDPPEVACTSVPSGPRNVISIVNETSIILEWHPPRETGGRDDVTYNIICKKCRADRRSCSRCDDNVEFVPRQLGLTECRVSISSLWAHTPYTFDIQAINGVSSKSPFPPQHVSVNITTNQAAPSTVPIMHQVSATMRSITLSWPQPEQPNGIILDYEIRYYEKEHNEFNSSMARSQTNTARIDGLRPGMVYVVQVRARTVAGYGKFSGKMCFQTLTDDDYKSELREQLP

Another assay has as its target T5, Human EphB4-His (human, UniProt P54760 16-539).
T5 sequence (looked up): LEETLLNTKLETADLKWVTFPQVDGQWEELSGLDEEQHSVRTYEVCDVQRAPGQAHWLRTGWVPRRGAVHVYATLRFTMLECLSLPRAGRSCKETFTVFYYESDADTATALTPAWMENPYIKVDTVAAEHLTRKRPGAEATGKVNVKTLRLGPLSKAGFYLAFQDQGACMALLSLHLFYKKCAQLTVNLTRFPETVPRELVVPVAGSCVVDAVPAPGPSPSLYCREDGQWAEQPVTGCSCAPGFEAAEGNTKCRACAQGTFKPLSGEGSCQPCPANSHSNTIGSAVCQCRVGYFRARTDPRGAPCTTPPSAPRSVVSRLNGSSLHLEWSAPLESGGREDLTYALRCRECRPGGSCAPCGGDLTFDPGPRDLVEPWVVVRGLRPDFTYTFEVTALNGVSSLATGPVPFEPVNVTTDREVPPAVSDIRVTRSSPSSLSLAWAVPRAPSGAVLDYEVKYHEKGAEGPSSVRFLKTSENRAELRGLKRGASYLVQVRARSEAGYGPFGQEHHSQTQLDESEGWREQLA

B1: Mouse EphrinB2-His protein (ligand, UniProt P52800 29-232, looked up)
chain: RSIVLEPIYWNSSNSKFLPGQGLVLYPQIGDKLDIICPKVDSKTVGQYEYYKVYMVDKDQADRCTIKKENTPLLNCARPDQDVKFTIKFQEFSPNLWGLEFQKNKDYYIISTSNGSLEGLDNQEGGVCQTRAMKILMKVGQDASSAGSARNHGPTRRPELEAGTNGRSSTTSPFVKPNPGSSTDGNSAGHSGNNLLGSEVALFA
Turning to B1, the binding result in the assay with Rat EphB1-Fc protein and with Human EphB3-Fc was “binds” throughout.

B2: Human EphrinB2-Fc (Fc fusion, UniProt P52799 28-229, looked up)
chain: IVLEPIYWNSSNSKFLPGQGLVLYPQIGDKLDIICPKVDSKTVGQYEYYKVYMVDKDQADRCTIKKENTPLLNCAKPDQDIKFTIKFQEFSPNLWGLEFQKNKDYYIISTSNGSLEGLDNQEGGVCQTRAMKILMKVGQDASSAGSTRNKDPTRRPELEAGTNGRSSTTSPFVKPNPGSSTDGNSAGHSGNNILGSEVALFA
Take B2: the binding result in the assay with Human EphB2-His, in the assay with Human EphB1-His and in the assay with Human EphB4-His was “binds” each time.

Source of the values: doi:10.64898/2025.12.08.693004 (bioRxiv, 2025).
